This is an account of results in publication PMC6476477, “A DNA aptamer reveals an allosteric site for inhibition in metallo-β-lactamases”.

Common to all, as to conditions: protein: recombinant; tags: none stated; hairpin (M-fold predicted)
Data set [1] has as its target T1, 5/B/6 metallo-beta-lactamase (MBL) wild type (Bacillus cereus 5/B/6, UniProt P14488 30-256).
T1 sequence: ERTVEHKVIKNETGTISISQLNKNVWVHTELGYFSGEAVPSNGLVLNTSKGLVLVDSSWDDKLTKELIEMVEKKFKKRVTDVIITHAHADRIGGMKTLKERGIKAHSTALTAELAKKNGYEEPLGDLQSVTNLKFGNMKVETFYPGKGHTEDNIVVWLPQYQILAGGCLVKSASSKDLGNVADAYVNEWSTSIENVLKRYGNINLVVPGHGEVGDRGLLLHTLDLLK
The experiment in a line: enzyme inhibition; cefuroxime substrate; NMR: 20 mM MOPS, 1 mM ZnSO4, pH 7, 25 C (buffer stated for assignment sample; titration at 25 C); kinetic assay buffer not in the material.

For data set [2], the target named is T1, 5/B/6 metallo-beta-lactamase (MBL) wild …. The experiment in a line: NMR 1H-15N HSQC titration; 750 uM enzyme, 0-4 eq 10-mer; range of fits for Lys78, Lys104, Lys107; 1 mM Zn2+ (NMR buffer); NMR: 20 mM MOPS, 1 mM ZnSO4, pH 7, 25 C (buffer stated for assignment sample; titration at 25 C); kinetic assay buffer not in the material.
The target is the same in data set [3]. The experiment in a line: enzyme inhibition kinetics (uncompetitive KI'); cefuroxime substrate; NMR: 20 mM MOPS, 1 mM ZnSO4, pH 7, 25 C (buffer stated for assignment sample; titration at 25 C); kinetic assay buffer not in the material.

For CCAAACTTGG (structured_DNA) [10-mer DNA aptamer], in data set [1], the IC50 was 120 ± 5 nM. In addition, the Kd in data set [2] was 153 nM. Also, in data set [3], the Ki is 63 ± 3 nM.

In general, IC50 refers to the point on the concentration scale where inhibition reaches its midpoint. In general, Kd refers to the equilibrium constant for the complex coming apart. In general, Ki refers to a dissociation constant, usually derived from enzyme kinetics or from competition with a known ligand.
